Laboratory results as given in the MegaScale stability set (Tsuboyama et al. 2023).

B1: r11_951_TrROS_Hall (parent)
chain: KKKYVIKVYFEDTGKEVEIEAESKEEALEAAKRLAEELGLKIKKVEIYP

Variants of: B1
Assay: folding stability dG (cDNA display proteolysis); higher = more stable
Details: PBS, room temperature

| Variant | folding stability dG [kcal/mol] |
| --- | --- |
| KKKYVIKVYFEDTGKEVEIGAESKEEALEAAKRLAEELGLKIKKVEIYP [E20G] | 4.27 |
| KKKYVIKVYFEDTGKEVEIRAESKEEALEAAKRLAEELGLKIKKVEIYP [E20R] | 4.29 |
| KKKYVIKVYFEDTGKEVEIQAESKEEALEAAKRLAEELGLKIKKVEIYP [E20Q] | 4.43 |
| KKKYVIKVYFEDTGKEVEIWAESKEEALEAAKRLAEELGLKIKKVEIYP [E20W] | 4.49 |
| KKKYVIKVYFEDTGKEVEIKAESKEEALEAAKRLAEELGLKIKKVEIYP [E20K] | 4.03 |
| KKKYVIKVYFEDTGKEVEIHAESKEEALEAAKRLAEELGLKIKKVEIYP [E20H] | 4.42 |
| KKKYVIKVYFEDTGKEVEIPAESKEEALEAAKRLAEELGLKIKKVEIYP [E20P] | 4.29 |
| KKKYVIKVYFEDTGKEVEIYAESKEEALEAAKRLAEELGLKIKKVEIYP [E20Y] | 4.56 |
| KKKYVIKVYFEDTGKEVEIIAESKEEALEAAKRLAEELGLKIKKVEIYP [E20I] | 4.38 |
| KKKYVIKVYFEDTGKEVEILAESKEEALEAAKRLAEELGLKIKKVEIYP [E20L] | 4.36 |
| KKKYVIKVYFEDTGKEVEICAESKEEALEAAKRLAEELGLKIKKVEIYP [E20C] | 4.28 |
| KKKYVIKVYFEDTGKEVEIAAESKEEALEAAKRLAEELGLKIKKVEIYP [E20A] | 4.33 |
| KKKYVIKVYFEDTGKEVEIDAESKEEALEAAKRLAEELGLKIKKVEIYP [E20D] | 4.27 |
| KKKYVIKVYFEDTGKEVEIVAESKEEALEAAKRLAEELGLKIKKVEIYP [E20V] | 4.42 |
| KKKYVIKVYFEDTGKEVEIFAESKEEALEAAKRLAEELGLKIKKVEIYP [E20F] | 4.25 |
| KKKYVIKVYFEDTGKEVEIEQESKEEALEAAKRLAEELGLKIKKVEIYP [A21Q] | 3.77 |
| KKKYVIKVYFEDTGKEVEIEVESKEEALEAAKRLAEELGLKIKKVEIYP [A21V] | 4.45 |
| KKKYVIKVYFEDTGKEVEIEKESKEEALEAAKRLAEELGLKIKKVEIYP [A21K] | 4.29 |
| KKKYVIKVYFEDTGKEVEIELESKEEALEAAKRLAEELGLKIKKVEIYP [A21L] | 4.24 |
| KKKYVIKVYFEDTGKEVEIEDESKEEALEAAKRLAEELGLKIKKVEIYP [A21D] | 3.72 |
| KKKYVIKVYFEDTGKEVEIEGESKEEALEAAKRLAEELGLKIKKVEIYP [A21G] | 4.28 |
| KKKYVIKVYFEDTGKEVEIEIESKEEALEAAKRLAEELGLKIKKVEIYP [A21I] | 4.44 |
| KKKYVIKVYFEDTGKEVEIESESKEEALEAAKRLAEELGLKIKKVEIYP [A21S] | 4.7 |
| KKKYVIKVYFEDTGKEVEIERESKEEALEAAKRLAEELGLKIKKVEIYP [A21R] | 4.32 |
| KKKYVIKVYFEDTGKEVEIENESKEEALEAAKRLAEELGLKIKKVEIYP [A21N] | 3.84 |
| KKKYVIKVYFEDTGKEVEIEYESKEEALEAAKRLAEELGLKIKKVEIYP [A21Y] | 4.18 |
| KKKYVIKVYFEDTGKEVEIETESKEEALEAAKRLAEELGLKIKKVEIYP [A21T] | 4.37 |

| Variant | folding stability dG [kcal/mol] |
| --- | --- |
| KKKYVIKVYFEDTGKEVEIECESKEEALEAAKRLAEELGLKIKKVEIYP [A21C] | 4.07 |
| KKKYVIKVYFEDTGKEVEIEMESKEEALEAAKRLAEELGLKIKKVEIYP [A21M] | 4.26 |
| KKKYVIKVYFEDTGKEVEIEWESKEEALEAAKRLAEELGLKIKKVEIYP [A21W] | 3.72 |
| KKKYVIKVYFEDTGKEVEIEHESKEEALEAAKRLAEELGLKIKKVEIYP [A21H] | 4.3 |
| KKKYVIKVYFEDTGKEVEIEEESKEEALEAAKRLAEELGLKIKKVEIYP [A21E] | 4.25 |
| KKKYVIKVYFEDTGKEVEIEFESKEEALEAAKRLAEELGLKIKKVEIYP [A21F] | 4.23 |
| KKKYVIKVYFEDTGKEVEIEPESKEEALEAAKRLAEELGLKIKKVEIYP [A21P] | 2.03 |
| KKKYVIKVYFEDTGKEVAIEAESKEEALEAAKRLAEELGLKIKKVEIYP [E18A] | 4.14 |
| KKKYVIKVYFEDTGKEVDIEAESKEEALEAAKRLAEELGLKIKKVEIYP [E18D] | 4.45 |
| KKKYVIKVYFEDTGKEVWIEAESKEEALEAAKRLAEELGLKIKKVEIYP [E18W] | 4.3 |
| KKKYVIKVYFEDTGKEVFIEAESKEEALEAAKRLAEELGLKIKKVEIYP [E18F] | 4.21 |
| KKKYVIKVYFEDTGKEVMIEAESKEEALEAAKRLAEELGLKIKKVEIYP [E18M] | 4.35 |
| KKKYVIKVYFEDTGKEVCIEAESKEEALEAAKRLAEELGLKIKKVEIYP [E18C] | 4.4 |
| KKKYVIKVYFEDTGKEVSIEAESKEEALEAAKRLAEELGLKIKKVEIYP [E18S] | 4.25 |
| KKKYVIKVYFEDTGKEVGIEAESKEEALEAAKRLAEELGLKIKKVEIYP [E18G] | 4.06 |
| KKKYVIKVYFEDTGKEVPIEAESKEEALEAAKRLAEELGLKIKKVEIYP [E18P] | 3.84 |
| KKKYVIKVYFEDTGKEVLIEAESKEEALEAAKRLAEELGLKIKKVEIYP [E18L] | 4.46 |
| KKKYVIKVYFEDTGKEVVIEAESKEEALEAAKRLAEELGLKIKKVEIYP [E18V] | 4.35 |
| KKKYVIKVYFEDTGKEVYIEAESKEEALEAAKRLAEELGLKIKKVEIYP [E18Y] | 4.12 |
| KKKYVIKVYFEDTGKEVNIEAESKEEALEAAKRLAEELGLKIKKVEIYP [E18N] | 4.16 |
| KKKYVIKVYFEDTGKEVQIEAESKEEALEAAKRLAEELGLKIKKVEIYP [E18Q] | 4.5 |
| KKKYVIKVYFEDTGKEVTIEAESKEEALEAAKRLAEELGLKIKKVEIYP [E18T] | 4.3 |
| KKKYVIKVYFEDTGKEVRIEAESKEEALEAAKRLAEELGLKIKKVEIYP [E18R] | 4.19 |
| KKKYVIKVYFEDTGKEVKIEAESKEEALEAAKRLAEELGLKIKKVEIYP [E18K] | 4.07 |
| KKKYVIKVYFEDTGKEVHIEAESKEEALEAAKRLAEELGLKIKKVEIYP [E18H] | 4.32 |
| KKKYVIKVYFEDTGKEVIIEAESKEEALEAAKRLAEELGLKIKKVEIYP [E18I] | 4.61 |
